Reference: PMC5897841, “Development of a multipurpose scaffold for the display of peptide loops” (Protein Engineering, Design and Selection, 2017)
Bridge positions count the residues as written; N and C are the ends. Ends that are not written are not given here.

How the values were obtained:
[1] = biological target: T1, wild-type Aurora A (Aurora AWT) kinase domain (Homo sapiens, UniProt O14965); assay: Bio-Layer Interferometry direct binding of Aurora AWT to RAD-TPX2 mutants; conditions: double His-tagged RAD-TPX2 on Anti-Penta-HIS biosensors, 50 mM HEPES pH 7.4, 500 mM NaCl, 100 mM Mg(CH3COO)2, 0.5 mM ATP, 0.5 mM TCEP, 0.05% P20, 1:1 model, read-out: KD, BLI (Fig. 5a)
T1 construct: Aurora A (126-391)WT; made in house; host or cells: E. coli; plasmid pHAT4-LambdaPP
T1 sequence (O14965 126-391): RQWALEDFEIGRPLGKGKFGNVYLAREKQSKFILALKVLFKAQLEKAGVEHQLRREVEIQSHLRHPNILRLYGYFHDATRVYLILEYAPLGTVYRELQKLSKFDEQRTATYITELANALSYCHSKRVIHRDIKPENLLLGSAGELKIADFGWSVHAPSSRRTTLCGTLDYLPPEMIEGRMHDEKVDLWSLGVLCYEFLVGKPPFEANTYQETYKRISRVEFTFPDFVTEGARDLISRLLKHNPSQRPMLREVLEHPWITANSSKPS
Protocol: Octet RED96 (ForteBio) instrument was used for BLI analysis for double His-tagged RAD-TPX2/Aurora AWT interactions. Experiments were performed using Anti-Penta-HIS biosensors (ForteBio), which were regenerated with 10 mM glycine, pH 1.7. IMAC purified RAD proteins displaying wild-type sequence or alanine mutants of the TPX2 were buffer exchanged into 50 mM HEPES pH 7.4, 500 mM NaCl, 100 mM Mg(CH3COO)2, 0.5 mM ATP, 0.5 mM TCEP, 0.05% P20 (assay buffer). For binding assays pre-wet sensors were loaded with double His-tag labeled proteins at 1 μM in assay buffer. Dilution series (from 0 to 500 or 5000 nM) of Aurora AWT kinase construct without His-tag was prepared in the assay buffer and following experimental setup was used for each measurement cycle: regeneration 3 × 5 s, baseline monitoring 120 s, sample loading 200 s, baseline monitoring 150 s, ligand binding (association) 400 s and ligand dissociation 600 s, followed by regeneration and the next cycle. Regenerated Anti-Penta-HIS biosensors were used to perform double referencing. Data was processed using ForteBio Analysis 7.1 software and dissociation constants were calculated in pro Fit (Quantum Soft) by fitting experimental data to 1:1 binding model equation.

[2] = biological target: T2, CK2α kinase (Homo sapiens, UniProt P68400); assay: Fluorescence anisotropy direct binding of labeled CK2β(186–200) / RAD-CK2β
T2 construct: made in house; host or cells: E. coli BL21(DE3) with pUBS520; pBAT4 plasmid
T2 sequence (P68400 2-329): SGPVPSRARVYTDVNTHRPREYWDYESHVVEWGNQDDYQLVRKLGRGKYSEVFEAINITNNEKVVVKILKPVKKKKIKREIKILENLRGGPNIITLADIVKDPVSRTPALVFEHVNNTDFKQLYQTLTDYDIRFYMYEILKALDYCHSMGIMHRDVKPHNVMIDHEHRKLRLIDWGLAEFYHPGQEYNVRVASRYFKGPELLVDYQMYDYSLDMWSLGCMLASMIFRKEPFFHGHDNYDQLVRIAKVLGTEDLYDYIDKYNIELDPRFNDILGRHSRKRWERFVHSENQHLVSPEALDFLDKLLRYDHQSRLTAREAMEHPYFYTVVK
Protocol: About 100 μg peptide or protein in 500 μl sodium phosphate pH 6.75, 150 mM NaCl were labeled using 30-fold excess of the maleimide dye. The reactions was allowed to proceed for 1 h at room temperature and the Alexa Fluor 488-maleimide was removed by dialysis using 3-kDa molecular weight cut-off membrane against 10 mM Tris pH 8, 250 mM NaCl buffer. Protein and peptide samples were dialyzed for 3 h at room temperature and further purified by SEC using Superdex 75 GL 10/300 or Superdex peptide 10/300 GL column (GE Healthcare). Labeled peptides and proteins were concentrated to 100 μM, flash frozen in liquid nitrogen and stored at −80°C. The concentration of labeled peptide or proteins and degree of labeling was determined by measuring the absorbance at 280 and 495 nm.
(§1) A stock solution of Alexa Fluor 488-labeled peptide or display proteins was diluted in assay buffer to concentration of 20 nM. For both studies, 10 mM HEPES pH 7.4, 500 mM NaCl, 1 mM DTT, 0.05% P20 buffer from was used. […] FA was measured using PheraStar spectrofluorimeter plate reader (BMG Laboratories, Durham, NC) equipped with polarization filters (excitation 485 nm, emission 520 nm). Dissociation constants were calculated in pro Fit (Quantum Soft) by fitting experimental data to 1:1 binding model equation.

[3] = biological target: CK2α; design: method as in Raaf et al., 2013; conditions: ref Raaf et al., 2013; cited from earlier work
[4] = test system: CK2β/CK2α complex; design: method as in Laudet et al., 2007; conditions: read-out: IC50, inhibition of CK2β/CK2α complex formation; ref Laudet et al., 2007; cited from earlier work
[5] = biological target: Aurora A; conditions: N-terminal segment of TPX2; ref Anderson et al., 2007; read-out: Affinity of TPX2 for Aurora A; cited from earlier work
Excerpt: Aurora A kinase plays an important role in the mitotic spindle assembly and is overexpressed in tumor cells ([Bischoff et al., 1998]). It is known to be dramatically activated by TPX2 protein, which binds to the Aurora A catalytic domain and translocates the kinase to the mitotic spindle during mitosis ([Bischoff et al., 1998]; [Kufer et al., 2002]; [Eyers et al., 2003]).

[6] = biological target: T2, CK2α kinase; assay: Affinities for CK2α across the experimental techniques (ITC, SPR, FA); type: binding; conditions: read-out: KD range between the different experimental techniques
Protocol: All ITC experiments were performed on itc200 instrument (GE Healthcare). Prior to ITC titration, proteins and peptides were buffer exchanged into 10 mM HEPES pH 7.4, 500 mM NaCl, 0.05% P20 surfactant. ITC experiments with Aurora Awt kinase were performed in buffer containing 50 mM HEPES pH 7.4, 100 mM Mg(CH3COO)2, 100 mM NaCl, 1 mM ATP, 1 mM DTT, 0.01% v/v P20. […] In the Aurora AD274N and Aurora AWT binding assays, 50 μM solution of the titrant was injected into 5 μM kinase solution in the cell. […] Binding isotherms were fit by non-linear regression using the single-site model provided by ORIGIN software (Origin Lab). […]
SPR analyses were conducted using a Biacore T100 instrument (GE Healthcare) using CM5 sensor chips to which cRAD display proteins were immobilized through their unique cysteine residues. […] Aurora A binding to TPX-2 peptide and RAD-TPX-2 were analyzed also using kinetic data with heterogenous ligand model, with data presented in the Supplementary Material.
as §1, with “nM.” for “nM. For both studies, 10 mM HEPES pH 7.4, 500 mM NaCl, 1 mM DTT, 0.05% P20 buffer from was used.”

[7] = biological target: T2, CK2α kinase; assay: ITC binding of CK2β(186–200) peptide / RAD display to CK2α; conditions: 25°C, 10 mM HEPES pH 7.4, 500 mM NaCl, 0.05% P20, 100 μM titrant into 10 μM CK2α, single titration, ± from fitting, RAD version is cRAD-CK2β(186–200), read-out: Equilibrium dissociation constant (KD), ITC
Protocol: All ITC experiments were performed on itc200 instrument (GE Healthcare). Prior to ITC titration, proteins and peptides were buffer exchanged into 10 mM HEPES pH 7.4, 500 mM NaCl, 0.05% P20 surfactant. ITC experiments with Aurora Awt kinase were performed in buffer containing 50 mM HEPES pH 7.4, 100 mM Mg(CH3COO)2, 100 mM NaCl, 1 mM ATP, 1 mM DTT, 0.01% v/v P20. […] In the Aurora AD274N and Aurora AWT binding assays, 50 μM solution of the titrant was injected into 5 μM kinase solution in the cell. […] Binding isotherms were fit by non-linear regression using the single-site model provided by ORIGIN software (Origin Lab). The stoichiometry of the interaction (N), equilibrium association constant (KA) and change of enthalpy (ΔH) were floated during the fitting.

[8] = biological target: T2, CK2α kinase; assay: SPR binding of CK2α to immobilized CK2β(186–200) / RAD-CK2β; conditions: Biacore T100, CM5 chip, ligand immobilized via free cysteine (linear peptide with C-terminal Gly-Cys), 25°C, 10 mM HEPES pH 7.4, 500 mM NaCl, 0.05% P20; data at 200 s post-injection; 1:1 steady-state model; ± from fitting; read-out: Equilibrium dissociation constant (KD), SPR steady-state
Protocol: SPR analyses were conducted using a Biacore T100 instrument (GE Healthcare) using CM5 sensor chips to which cRAD display proteins were immobilized through their unique cysteine residues. All coupling reagents were purchased from GE Healthcare: N-ethyl-N′-dimethylaminopropylcarbodiimide (EDC), 2-(2-pyridinyldithio) ethaneamine hydrochloride (PDEA), N-hydroxysuccinimide (NHS). All immobilizations were conducted at 25°C in running buffer 10 mM HEPES pH 7.4, 500 mM sodium chloride, 0.05% P20. Two CM5 sensor chips were used for the experiments. Peptides and RAD scaffold displaying the peptides were covalently immobilized via free cysteine on the sensor surface in cells 2 and 4, respectively. Cells 1 and 3 were derivatized with cysteine only and served as reference surfaces. Active and reference cells were created automatically using the immobilization surface preparation Wizard software. Immobilization levels for cells 2 and 4 ranged from 240 to 400 RU. […] The dissociation step was 180 s after which sensor surfaces were regenerated by injecting 3 M MgCl2 solution 3 times for 30 sat 60 μl/min. […] Aurora A binding to TPX-2 peptide and RAD-TPX-2 were analyzed also using kinetic data with heterogenous ligand model, with data presented in the Supplementary Material.

RAD-TPX2(7–43): RAD scaffold (RadA ATPase domain) displaying residues 7–43 of human TPX2
Kd [1]: 0.046 µM

fluorescein labeled linear CK2β peptide: fluorescein labeled linear CK2β(186–200) peptide (RLYGFKIHPMAYQLQ; also: fluorescein label, site not given here; UniProt P67870 186-200, looked up, fragment) [reference compound]
Fold weaker affinity of labeled linear peptide vs RAD display, FA ([2]; fluorescein-labeled linear CK2β peptide relative to RAD-CK2β display): ~ 3 times

GCRLYGFKIHGCG (disulfide 2-12 (inferred)) [Pc peptide]
Kd [3]: 0.559 µM | IC50 [4]: 3 µM

TPX2: TPX2 protein, binds Aurora A through its N-terminal segment (LSYSYDAPSDFINFSSLDDEGDTQNIDSWFEEKANLENLKGGGCQM; left off: KSI, end not stated, cleaved)
Kd [5]: 0.0023 µM

CK2β(186–200): synthetic linear peptide, residues 186–200 of human CK2β (RLYGFKIHPMAYQLQ; UniProt P67870 186-200, looked up, fragment)
Kd [6]: 0.138 to 0.407 µM | Kd [7]: 0.138 ± 0.013 µM | Kd ([2]; fluorescein-labeled linear peptide or Alexa Fluor 488-labeled cRAD-CK2β(186–200), 10 mM HEPES pH 7.4, 500 mM NaCl, 1 mM DTT, 0.05% P20, CK2α 2 nM–2 μM, 15 min room temperature, 1:1 model, ± from fitting, read-out: Equilibrium dissociation constant (KD), FA): 0.348 ± 0.027 µM | Kd [8]: 0.407 ± 0.05 µM
